Measured values published in ChEMBL document CHEMBL2074064, “Uptake of cyclic dipeptide by PEPT1 in Caco-2 cells: phenolic hydroxyl group of substrate enhances affinity for PEPT1” (J Pharm Pharmacol, 2002).

Assays:
Format in all cases: functional, cell-based
[1] = substrate: O=C1CNC(=O)[C@H](Cc2ccc(O)cc2)N1; test: (§1) TP_TRANSPORTER: uptake in Caco-2 cells
[2] = substrate: O=C1CNC(=O)[C@H](Cc2ccccc2)N1; test: as §1
[3] = substrate: O=C1N[C@@H](Cc2ccccc2)C(=O)N[C@H]1CO; test: as §1
[4] = substrate: O=C1N[C@@H](Cc2ccc(O)cc2)C(=O)N[C@H]1CO; test: as §1

B1: Solute carrier family 15 member 1 (Homo sapiens), P46059 (protein)
chain: MGMSKSHSFFGYPLSIFFIVVNEFCERFSYYGMRAILILYFTNFISWDDNLSTAIYHTFVALCYLTPILGALIADSWLGKFKTIVSLSIVYTIGQAVTSVSSINDLTDHNHDGTPDSLPVHVVLSLIGLALIALGTGGIKPCVSAFGGDQFEEGQEKQRNRFFSIFYLAINAGSLLSTIITPMLRVQQCGIHSKQACYPLAFGVPAALMAVALIVFVLGSGMYKKFKPQGNIMGKVAKCIGFAIKNRFRHRSKAFPKREHWLDWAKEKYDERLISQIKMVTRVMFLYIPLPMFWALFDQQGSRWTLQATTMSGKIGALEIQPDQMQTVNAILIVIMVPIFDAVLYPLIAKCGFNFTSLKKMAVGMVLASMAFVVAAIVQVEIDKTLPVFPKGNEVQIKVLNIGNNTMNISLPGEMVTLGPMSQTNAFMTFDVNKLTRINISSPGSPVTAVTDDFKQGQRHTLLVWAPNHYQVVKDGLNQKPEKGENGIRFVNTFNELITITMSGKVYANISSYNASTYQFFPSGIKGFTISSTEIPPQCQPNFNTFYLEFGSAYTYIVQRKNDSCPEVKVFEDISANTVNMALQIPQYFLLTCGEVVFSVTGLEFSYSQAPSNMKSVLQAGWLLTVAVGNIIVLIVAGAGQFSKQWAEYILFAALLLVVCVIFAIMARFYTYINPAEIEAQFDEDEKKNRLEKSNPYFMSGANSQKQM
Km [1]: 62.9 µM
Km [2]: 90.9 µM
Km [3]: 118 µM
Km [4]: 21.9 µM
